According to the RNAGym collection of RNA variant scans (doi:10.7554/elife.80360):

B1: HDV Ribozyme (parent)
chain: GGCCGGCAUGGUCCCAGCCUCCUCGCUGGCGCCGGCUGGGCAACAUUCCGAGGGGACCGUCCCCUCGGUAAUGGCGAAUGGGACCCA

Variants of: B1
Experiment: self-cleavage, relative activity (ratio to wild type); higher = more cleavage; co-transcriptional

| Variant | self-cleavage |
| --- | --- |
| C48A U60C | 0.91 |
| C48A U60G | 0.886 |
| C48A U60A | 0.918 |
| C49A G80A | 0.479 |
| C48A U72C | 0.519 |
| C48A A70U | 0.985 |
| C48U | 1.01 |
| C48G | 0.988 |
| C48A | 0.989 |
| G50C G59A | 0.992 |
| G50A C61U | 0.649 |
| C48A C86G | 1.04 |
| C48U G76U | 1.15 |
| C48U G76A | 1.08 |
| U47C G53U | 0.966 |
| C48G C86G | 1.11 |
| U47C G50C | 0.831 |
| U47C G50U | 0.733 |
| C48U G81U | 0.327 |
| C49G C62G | 0.133 |
| G50A G59C | 1.31 |
| U47C C49A | 0.95 |
| U47C G59U | 0.95 |
| U47C G59C | 1.09 |

| Variant | self-cleavage |
| --- | --- |
| C48A A78U | 0.242 |
| C48A A78G | 0.776 |
| C48A A78C | 0.169 |
| C48G A78U | 0.142 |
| C49A G74A | 0.288 |
| U47C G67A | 0.923 |
| C49A C85G | 0.762 |
| U47G U65A | 0.942 |
| U47A G74C | 0.104 |
| C48A G52U | 0.974 |
| C48U G54U | 1.02 |
| C48U G54C | 1.2 |
| U47C U72A | 0.65 |
| C48U A78G | 0.522 |
| U47C A56G | 0.665 |
| C48U G74C | 0.253 |
| C49A C63A | 0.597 |
| C48G G82U | 0.284 |
| C48G G82C | 0.111 |
| C48A G55A | 0.972 |
| C48A G67C | 0.856 |
| C49A C64G | 0.356 |
| C48U A87G | 1.07 |
| U47G C57A | 1.22 |

| Variant | self-cleavage |
| --- | --- |
| U47G C57G | 1.22 |
| U47A G55C | 1.15 |
| C49U C62U | 1.17 |
| C49G G82C | 0.16 |
| C49G G82U | 0.123 |
| C48G C57A | 0.798 |
| C48G C57U | 1.04 |
| G50C A56C | 0.978 |
| C49G G81U | 0.205 |
| C49G G81A | 0.361 |
| C48A C57G | 1.18 |
| G50C C64A | 0.389 |
| C49G G55A | 0.976 |
| C48A G68C | 0.707 |
| C48A G68A | 1.06 |
| C49G C63A | 0.489 |
| U47C G74C | 0.256 |
| U47C G74U | 0.633 |
| C48A C84U | 0.819 |
| C48A C84A | 1.08 |
| G50A G67U | 1.06 |
| G50A G67A | 1.17 |
| G50A G67C | 0.869 |
| U47C C66G | 1.17 |

| Variant | self-cleavage |
| --- | --- |
| C48G A70U | 0.506 |
| G50A G82C | 0.409 |
| G50A G74C | 0.242 |
| G50A G74A | 0.411 |
| G50A A71G | 0.991 |
| G50A A71U | 0.881 |
| U47C G52U | 0.698 |
| U47G G54C | 0.928 |
| C48G U69G | 0.712 |
| C48G U69C | 0.987 |
| C49A U79A | 1.05 |
| C49G G50A | 0.793 |
| C49G G50C | 0.587 |
| U47G G76U | 1.22 |
| C49A C75A | 0.156 |
| U47C C57A | 0.875 |
| U47C C57G | 0.677 |
| G50C C84G | 0.542 |
| U47G C86G | 0.95 |
| G50A A87C | 1.07 |
| U47A G59U | 0.933 |
| C49U A78U | 0.437 |
| C48A C62U | 1.05 |
| G50U A70U | 0.946 |

| Variant | self-cleavage |
| --- | --- |
| C49U C84G | 0.364 |
| C49U G68U | 0.817 |
| G50A G52A | 0.888 |
| U47C G68C | 0.44 |
| C49A C84A | 1.05 |
| U47A U60A | 0.851 |
| C49G G67C | 1.22 |
| G50U A51U | 1.05 |
| C48U C84A | 0.958 |
| C48U C84U | 0.742 |
| C49U G80U | 0.219 |
| C49U G80C | 0.143 |
| G50U A87C | 0.935 |
| C49U G81U | 0.314 |
| G50A C86G | 0.884 |
| U47A G53C | 1.19 |
| U47A G53U | 0.755 |
| G50U A78U | 0.229 |
| C48U G73C | 0.422 |
| U47G G74U | 0.434 |
| U47G U69G | 0.776 |
| U47G C84A | 0.965 |
| U47G C84G | 0.475 |
| U47C C84A | 0.554 |

| Variant | self-cleavage |
| --- | --- |
| U47C G76U | 0.895 |
| U47C G76C | 0.931 |
| C48U U65A | 0.876 |
| C49A | 0.965 |
| C49U | 0.96 |
| C49G | 0.905 |
| U47C C86U | 0.712 |
| U47C U60A | 0.987 |
| U47C G55U | 0.831 |
| G50C A51C | 0.814 |
| C48A C49A | 1.16 |
| C48A C49U | 1.23 |
| U47G U72G | 0.623 |
| C48A A83U | 0.465 |
| G50A G54C | 0.628 |
| G50C U65A | 0.919 |
| C49A G67C | 1.04 |
| C49G U72C | 0.332 |
| C49A G55A | 0.816 |
| C49A G55U | 1.18 |
| U47A G81U | 0.219 |
| U47A G81C | 0.161 |
| G50A A78U | 0.4 |
| U47G C85U | 1.21 |

| Variant | self-cleavage |
| --- | --- |
| G50A U72G | 0.582 |
| C48A A51U | 1.1 |
| U47A U72C | 0.688 |
| G50A G55C | 0.81 |
| C49U A87U | 0.939 |
| C49U A87G | 0.959 |
| C48G C66A | 0.898 |
| C48G C66U | 0.868 |
| C49G U60A | 0.923 |
| C49G U60G | 0.762 |
| C49G U60C | 0.831 |
| G50C C66U | 0.954 |
| G50C C66A | 0.812 |
| U47A G76U | 0.742 |
| U47A G76A | 0.901 |
| C49G C84U | 0.429 |
| C49G G73C | 0.136 |
| C49G G73A | 0.197 |
| G50C C58G | 0.796 |
| G50C C58U | 1.04 |
| C48G C49A | 0.808 |
| C48U G50A | 0.888 |
| U47G C58G | 0.831 |
